Test results: PMC3274598 (Analytical Biochemistry, 2011)
Blank lines part the entries; values can stand above or below the binder they belong to.

Key:
[1] = target: N-terminal OB-fold domain of RPA70 (RPA70N) (human, UniProt P27694 1-120); experiment: fluorescence polarisation
ATRIP peptide = target: T1, ATRIP peptide (Homo sapiens, UniProt Q8WXE1); experiment: NMR
T1 chain: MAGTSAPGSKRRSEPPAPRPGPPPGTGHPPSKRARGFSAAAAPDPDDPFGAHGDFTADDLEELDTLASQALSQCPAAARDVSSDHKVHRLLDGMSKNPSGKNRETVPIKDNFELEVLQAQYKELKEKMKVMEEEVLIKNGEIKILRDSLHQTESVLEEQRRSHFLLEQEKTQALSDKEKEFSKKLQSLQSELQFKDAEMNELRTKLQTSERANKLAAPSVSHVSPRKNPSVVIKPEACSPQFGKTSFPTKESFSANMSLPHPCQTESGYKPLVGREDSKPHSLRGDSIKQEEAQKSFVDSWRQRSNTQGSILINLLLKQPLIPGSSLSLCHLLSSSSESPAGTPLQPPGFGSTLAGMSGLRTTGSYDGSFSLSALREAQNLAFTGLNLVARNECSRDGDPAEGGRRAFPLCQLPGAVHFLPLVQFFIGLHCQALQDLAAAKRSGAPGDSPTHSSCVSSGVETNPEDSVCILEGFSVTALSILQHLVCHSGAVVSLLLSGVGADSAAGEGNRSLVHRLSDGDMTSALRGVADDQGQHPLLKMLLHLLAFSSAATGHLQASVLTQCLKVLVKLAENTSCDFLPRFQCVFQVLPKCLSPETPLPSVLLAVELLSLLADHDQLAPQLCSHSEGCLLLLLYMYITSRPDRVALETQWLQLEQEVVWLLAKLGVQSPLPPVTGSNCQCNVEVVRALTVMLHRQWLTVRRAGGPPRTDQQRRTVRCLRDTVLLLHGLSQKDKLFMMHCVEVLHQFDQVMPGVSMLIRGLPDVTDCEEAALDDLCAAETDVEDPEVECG

RAD9 peptide = target: T2, RAD9 peptide (Homo sapiens, UniProt Q99638); experiment: anisotropy
T2 chain: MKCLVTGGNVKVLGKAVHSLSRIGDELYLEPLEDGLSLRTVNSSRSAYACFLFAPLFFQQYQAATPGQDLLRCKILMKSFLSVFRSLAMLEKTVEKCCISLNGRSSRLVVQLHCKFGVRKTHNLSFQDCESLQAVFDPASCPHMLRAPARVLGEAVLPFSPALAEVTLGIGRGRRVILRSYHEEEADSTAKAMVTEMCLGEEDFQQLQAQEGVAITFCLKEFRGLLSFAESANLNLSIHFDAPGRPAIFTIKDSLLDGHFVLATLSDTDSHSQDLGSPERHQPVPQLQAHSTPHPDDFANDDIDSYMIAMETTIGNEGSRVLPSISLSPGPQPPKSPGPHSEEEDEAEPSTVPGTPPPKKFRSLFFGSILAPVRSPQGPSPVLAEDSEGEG

IC50 [1]: 102 ± 13.6 µM
Binder: Ac-DFANDDIDSYMIAME-NH2 [RAD9 peptide (Ac-DFANDDIDSYMIAME-NH2)]

Kd (ATRIP peptide): 48 µM
Kd (RAD9 peptide): 51 µM
B1: RPA70N 70N (protein)
chain: MVGQLSEGAIAAIMQKGDTNIKPILQVINIRPITTGNSPPRYRLLMSDGLNTLSSFMLATQLNPLVEEEQLSSNCVCQIHRFIVNTLKDGRRVVILMELEVLKSAEAVGVKIGNPVPYNE
